± gives the standard deviation of the averaged measurements.

This series relates to ATP. Briefly: switch fluorescence ratio, 500 uM ATP over buffer (Cy3 cluster intensity, sum of 5 cycles each) (fold (ratio)); higher = stronger signal-on switching upon ATP binding; sequences stand for … in TCGTCGGCAGCGTCAGATGTGTATAAGAGACAGTTTTTTTTTTTTTTTTTTTTTTTTT…TC. The following applies: aptamer strand: ATP DNA aptamer (quencher-CACCTGGGGGAGTATTGCGGAGGAAGG + anchor), 100 nM annealed; ATP concentration: 500 uM. In short, it runs like this:
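Clusters carrying Cy3-labelled switching strands on a modified Illumina MiSeq flow-cell were annealed to 100 nM quencher-labelled ATP aptamer and imaged in selection buffer. They were imaged again after 15 min with 500 uM ATP at 22 °C, over five buffer/ATP cycles with NaOH stripping and re-annealing in between. For each cluster, the fluorescence ratio is the summed Cy3 intensity of the target cycles divided by that of the buffer cycles, averaged per switch-domain sequence. Clusters outside 100-1000 RFU were left out.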
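Further: ATP exposure 15 min at 22 °C before imaging.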

Turning to GTGGATTTTC, the switch fluorescence ratio came to 1 ± 0.062.
As to ATAACAAGGG, the switch fluorescence ratio turned out to be 1.04 ± 0.089.
The figure for GATATTGAAG is 0.974 ± 0.031; for TTTGTGGGCG it is 0.932 ± 0.021.
The figure for TGCGATTGTT is 1.01 ± 0.056; for ATGTTATTTT it is 1.013 ± 0.0049.
The figure for TGGGGGTGCC is 0.9758 ± 0.0037.
In the case of TTACGCAAGT, the switch fluorescence ratio was found to be 1.27 ± 0.17.
The figure for TTAGGGGGTG is 1.01 ± 0.025.
The figure for TGGCGGAAGG is 0.999 ± 0.044; for TGGGACTCGA it is 0.991 ± 0.035; for TTTGCTGGAA it is 0.995 ± 0.015.
Turning to AATGTATGGG, the switch fluorescence ratio worked out at 0.99 ± 0.058.
As for TGATACCTGT, the switch fluorescence ratio worked out at 0.975 ± 0.068.
Consider TTATTCCTAT, for which the switch fluorescence ratio was 1.02 ± 0.021.
Next, TAGGATTTAG: 0.994 ± 0.039; GAGATTGGGT: 1.001 ± 0.0077; AAATTAATTG: 1.02 ± 0.036.
Next, CGGCATGCGG: 1.022 ± 0.0035.
The figure for ATGTATTCGC is 0.983 ± 0.014; for GTAGTAGGGA it is 1.01 ± 0.025.
ATTTGTCGGC: the switch fluorescence ratio is 1.05 ± 0.051.
Next, CAGGTTAATT: 1.02 ± 0.044.
Next, TTAAGGCGGG: 1 ± 0.05; AAGAAGGGGA: 1.22 ± 0.31.
For CGTTTACTTT, the switch fluorescence ratio came to 0.984 ± 0.059.
Next, GTGTCCCCTG: 0.981 ± 0.04.
Next, CAGGGGGCGA: 1.06 ± 0.07; AGTCTGTCGT: 0.98 ± 0.039; TTTGGTTGTA: 0.965 ± 0.014.
In the case of GGGGGCCTTA, the switch fluorescence ratio is 1.01 ± 0.047.
Next, CTTGCCGGCG: 1.07 ± 0.03; ATATAAATTA: 1.01 ± 0.05; ATTTTCATAC: 1.08 ± 0.026.
The figure for TTTGGATGCT is 1.05 ± 0.14; for TCTAGGAGGT it is 0.987 ± 0.028.
For the sequence TTAAGTATGT, the switch fluorescence ratio turned out to be 1.08 ± 0.089.
As for TTCCATCCAT, the switch fluorescence ratio was 1.0067 ± 0.00069.
As for AGATTTTTAT, the switch fluorescence ratio is 0.983 ± 0.012.
In the case of GGGGTGCGTG, the switch fluorescence ratio stood at 0.984 ± 0.045.
In the case of CCATGCTTGT, the switch fluorescence ratio turned out to be 1.03 ± 0.035.
The figure for TGGACGGCGC is 1.04 ± 0.016; for TACAGGGGGT it is 1.02 ± 0.062.
For the sequence ATCGGTTCGG, the switch fluorescence ratio amounted to 0.9934 ± 0.0053.
Take TTGTTTTAGT: the switch fluorescence ratio is 1.06 ± 0.067.
Next, TTAAGAACAC: 1.04 ± 0.037; AGTGTTCGGG: 1 ± 0.043.
Consider TTGAGTGAAT, for which the switch fluorescence ratio was found to be 1 ± 0.042.
Next, TGAGAGTTAA: 0.961 ± 0.036.
Next, TGCAAATTTT: 1 ± 0.036; TTACTTTTTC: 1.01 ± 0.011; CGGTACTTAT: 0.983 ± 0.017.
Next, GTCGTATTTG: 0.9822 ± 0.0057; TTGCTAAAGG: 0.964 ± 0.016.
Turning to CCTAGGTTTC, the switch fluorescence ratio is 0.981 ± 0.035.
The figure for GGCTGAGGCG is 0.965 ± 0.024; for ACTGGAGTTT it is 1.01 ± 0.023.
The figure for AAAGTTTCGC is 1 ± 0.019; for TTCGGTATAG it is 1 ± 0.025.
The figure for TAAAATAGTT is 0.972 ± 0.026.
Consider AGGCATTGGG, for which the switch fluorescence ratio stood at 1.0154 ± 0.00096.
As for TAGACGGGGA, the switch fluorescence ratio was 0.984 ± 0.046.
Next, GCCGTGTGAT: 0.986 ± 0.0083.
The figure for AAGGGGGGCG is 1.02 ± 0.037; for GAGGGCGGCA it is 1.02 ± 0.036.
The figure for GGGAGATGAC is 1.01 ± 0.022; for TTTTGACTGT it is 0.966 ± 0.015; for CAGATCCTTA it is 1.051 ± 0.0082.
On to TTAATTTTCT, for which the switch fluorescence ratio came to 1.04 ± 0.033.
Next, CGTTTTATAG: 0.9973 ± 0.0071; ATAGGTGCGG: 0.985 ± 0.021; GCTTAAACGG: 1.02 ± 0.073.
Next, TTTTATTAAA: 1 ± 0.031; TTTGATATAA: 0.991 ± 0.031.
Next, GCGGTAGTTT: 0.9974 ± 0.0066; CCTAGATAAC: 1.16 ± 0.039; TTTTTTCGAT: 0.995 ± 0.047.
As to GCATGGCACC, the switch fluorescence ratio came out at 1.01 ± 0.025.
For the sequence GCCCTATGTG, the switch fluorescence ratio came out at 1.25 ± 0.034.

Source of the values: the supplement of paper PMC10126150.
